Literature values, collected in PMC8645602.
Where two headings read alike, the source gives them in different places.

How the values were obtained:
[1] = molecular target: Tyr9 (UniProt position 9, KPKLHYFNGRG); conditions: not stated (the article does not say whether the enzyme was free or glutathione-bound)
[2] = molecular target: Tyr9 (UniProt position 9, KPKLHYFNARG)

Row | Substance | pKa [1] | pKa ([2]; free enzyme (no glutathione)) | pKa ([2]; glutathione bound)
1 | Glutathione transferase A3-3 (HsaGST A3-3) (Homo sapiens) | 7.9 |  | 
2 | Glutathione transferase A1-1 (HsaGST A1-1) (Homo sapiens) |  | 8.1 | 9.2
